Assay results from patent US10064926B2, “Peptides and combination of peptides for use in immunotherapy against hepatocellular carcinoma (HCC) and other cancers” (Immatics biotechnologies GmbH, priority 2014, dated 2018).

Molecular target: HLA-A*02 (Homo sapiens, UniProt P04439, D140Y/D185E/D98H/E176V/E277Q/G131W/G231S/I119V/I121R/I166T/I218V/N151K/N90K/P208A/P217A/Q86G/Q94H/R138H/R169H)
Assay: UV-ligand exchange / peptide binding to MHC class I (beta2m ELISA)
Conditions: Table 10A; peptide exchange yield, UV-ligand exchange, β2m ELISA
Text: Candidate peptides for T cell based therapies according to the present invention were further tested for their MHC binding capacity (affinity). The individual peptide-MHC complexes were produced by UV-ligand exchange, where a UV-sensitive peptide is cleaved upon UV-irradiation, and exchanged with the peptide of interest as analyzed. Only peptide candidates that can effectively bind and stabilize the peptide-receptive MHC molecules prevent dissociation of the MHC complexes. To determine the yield of the exchange reaction, an ELISA was performed based on the detection of the light chain (β2m) of stabilized MHC complexes. The assay was performed as generally described in Rodenko et al. (Rodenko B, Toebes M, Hadrup S R, van Esch W J, Molenaar A M, Schumacher T N, Ovaa H. Generation of peptide-MHC class I complexes through UV-mediated ligand exchange. Nat Protoc. 2006; 1(3):1120-32).
96 well MAXISorp plates (NUNC) were coated over night with 2 ug/ml streptavidin in PBS at room temperature, washed 4× and blocked for 1 h at 37° C. in 2% BSA containing blocking buffer. Refolded HLA-A*0201/MLA-001 monomers served as standards, covering the range of 15-500 ng/ml. Peptide-MHC monomers of the UV-exchange reaction were diluted 100 fold in blocking buffer. Samples were incubated for 1 h at 37° C., washed four times, incubated with 2 ug/ml HRP conjugated anti-β2m for 1 h at 37° C., washed again and detected with TMB solution that is stopped with […]. Absorption was measured at 450 nm. Candidate peptides that show a high exchange yield (preferably higher than 50%, most preferred higher than 75%) are generally preferred for a generation and production of antibodies or fragments thereof, and/or T cell receptors or fragments thereof, as they show sufficient avidity to the MHC molecules and prevent dissociation of the MHC complexes.

| Substance | Peptide exchange (MHC class I binding score) |
| --- | --- |
| 223 (FLFNTENKLLL; listed as Homo sapiens) [compound 223] | ++++ (>=75% = ++++) |

Same assay, conditions: Table 10B; peptide exchange yield; HLA-A*02 peptides

| Substance | Peptide exchange (MHC class I binding score) |
| --- | --- |
| 175 (TLFEHLPHI; listed as Homo sapiens) [compound 175] | “+++” (≥50 = +++) |
| 249 (LLLGERVAL; listed as Homo sapiens) [compound 249] | “++++” (≥75% = ++++) |
| 49 (FLYPEKDEPT; listed as Homo sapiens) [compound 49] | “++” (≥20% = ++) |
| 161 (RLLDEQFAV; listed as Homo sapiens) [compound 161] | “+++” (≥50 = +++) |
| 234 (YLEPYLKEV; listed as Homo sapiens) [compound 234] | “++++” (≥75% = ++++) |
| 134 (ALLETNPYLL; listed as Homo sapiens) [compound 134] | “++++” (≥75% = ++++) |
| 99 (SLSAFLPSL; listed as Homo sapiens) [compound 99] | “++++” (≥75% = ++++) |
| 85 (RILPKVLEV; listed as Homo sapiens) [compound 85] | “+++” (≥50 = +++) |
| 55 (GLYGRTIEL; listed as Homo sapiens) [compound 55] | “+++” (≥50 = +++) |
| 83 (QLHDFVMSL; listed as Homo sapiens) [compound 83] | “++++” (≥75% = ++++) |
| 174 (TLAELGAVQV; listed as Homo sapiens) [compound 174] | “+++” (≥50 = +++) |
| 269 (YLMEGSYNKV; listed as Homo sapiens) [compound 269] | “+++” (≥50 = +++) |
| 68 (KLLAATVLLL; listed as Homo sapiens) [compound 68] | “++” (≥20% = ++) |
| 154 (KLTDHLKYV; listed as Homo sapiens) [compound 154] | “+++” (≥50 = +++) |
| 172 (SLLNFLQHL; listed as Homo sapiens) [compound 172] | “+++” (≥50 = +++) |
| 65 (KLFSGDELLEV; listed as Homo sapiens) [compound 65] | “+++” (≥50 = +++) |
| 121 (YLITGNLEKL; listed as Homo sapiens) [compound 121] | “+++” (≥50 = +++) |
| 74 (KLYDLELIV; listed as Homo sapiens) [compound 74] | “+++” (≥50 = +++) |
| 107 (TLGQFYQEV; listed as Homo sapiens) [compound 107] | “++++” (≥75% = ++++) |
| 176 (TLGQIWDV; listed as Homo sapiens) [compound 176] | “++++” (≥75% = ++++) |
| 97 (SLLPQLIEV; listed as Homo sapiens) [compound 97] | “++++” (≥75% = ++++) |
| 263 (VLYPSLKEI; listed as Homo sapiens) [compound 263] | “+++” (≥50 = +++) |
| 223 (FLFNTENKLLL; listed as Homo sapiens) [compound 223] | “++++” (≥75% = ++++) |
| 94 (RMSDVVKGV; listed as Homo sapiens) [compound 94] | “+++” (≥50 = +++) |
| 39 (ALDPKANFST; listed as Homo sapiens) [compound 39] | “+++” (≥50 = +++) |

| Substance | Peptide exchange (MHC class I binding score) |
| --- | --- |
| 90 (RLLDVLAPLV; listed as Homo sapiens) [compound 90] | “+++” (≥50 = +++) |
| 159 (RLFPDGIVTV; listed as Homo sapiens) [compound 159] | “+++” (≥50 = +++) |
| 62 (KIAGTNAEV; listed as Homo sapiens) [compound 62] | “++” (≥20% = ++) |
| 45 (ALQDQLVLV; listed as Homo sapiens) [compound 45] | “++++” (≥75% = ++++) |
| 50 (FTIPKLYQL; listed as Homo sapiens) [compound 50] | “++” (≥20% = ++) |
| 93 (RLYTMDGITV; listed as Homo sapiens) [compound 93] | “++” (≥20% = ++) |
| 256 (SLFQGVEFHYV; listed as Homo sapiens) [compound 256] | “+++” (≥50 = +++) |
| 31 (YQMDIQQEL; listed as Homo sapiens) [compound 31] | “+++” (≥50 = +++) |
| 57 (HLTEAIQYV; listed as Homo sapiens) [compound 57] | “+++” (≥50 = +++) |
| 254 (RVQEAIAEV; listed as Homo sapiens) [compound 254] | “+++” (≥50 = +++) |
| 181 (YLLEKFVAV; listed as Homo sapiens) [compound 181] | “+++” (≥50 = +++) |
| 302 (KIQEILTQV; listed as Homo sapiens) [compound 302] | “++++” (≥75% = ++++) |
| 261 (VLFQEALWHV; listed as Homo sapiens) [compound 261] | “+++” (≥50 = +++) |
| 128 (GLAFSLNGV; listed as Homo sapiens) [compound 128] | “++++” (≥75% = ++++) |
| 122 (YLSQAADGAKVL; listed as Homo sapiens) [compound 122] | “++” (≥20% = ++) |
| 135 (ALLGKIEKV; listed as Homo sapiens) [compound 135] | “+++” (≥50 = +++) |
| 282 (GQFPSYLETV; listed as Homo sapiens) [compound 282] | “+++” (≥50 = +++) |
| 91 (RLPDIPLRQV; listed as Homo sapiens) [compound 91] | “+++” (≥50 = +++) |
| 184 (VVLDGGQIVTV; listed as Homo sapiens) [compound 184] | “+++” (≥50 = +++) |
| 179 (YIHNILYEV; listed as Homo sapiens) [compound 179] | “++++” (≥75% = ++++) |
| 274 (ALAEALKEV; listed as Homo sapiens) [compound 274] | “++++” (≥75% = ++++) |
| 151 (HLAKVTAEV; listed as Homo sapiens) [compound 151] | “+++” (≥50 = +++) |
| 246 (KLISSYYNV; listed as Homo sapiens) [compound 246] | “+++” (≥50 = +++) |
| 276 (ALLEADVNIKL; listed as Homo sapiens) [compound 276] | “++++” (≥75% = ++++) |
